Literature values as cited in paper PMC10094977.

Legend:
Cav1.2 IQ domain IQ = Cav1.2 IQ domain IQ (UniProt Q13936); test: isothermal titration calorimetry
[1] = molecular target: Cav1.2 alpha1C IQ domain 1611-1644 (Homo sapiens) (UniProt Q13936); test: isothermal titration calorimetry
Chain of Cav1.2 alpha1C IQ domain 1611-1644 (Homo sapiens) (Q13936 1611-1644): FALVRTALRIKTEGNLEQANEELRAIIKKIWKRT

Chain of Cav1.2 IQ domain IQ (Q13936 1665-1685): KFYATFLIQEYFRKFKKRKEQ

Substance	Kd (Cav1.2 IQ domain IQ)	Kd [1]
Ca2+/calmodulin C-lobe C-lobe (from UniProt P0DP23)	2 nM	–
Calmodulin C-lobe (from UniProt P0DP23)	–	2 nM
